Reference: patent US20110135573A1, “METALLOPROTEINASE 9 AND METALLOPROTEINASE 2 BINDING PROTEINS” (DYAX CORP., priority 2009, published 2011)

How the values were obtained:
[1] = biological target: mouse MMP-2 (R&D Systems #924-MP-010) (mouse) (UniProt P33434); test: Ki,app, enzyme inhibition assay (fluorogenic peptide substrate), small-scale sFab
[2] = biological target: mouse MMP-2 (R&D Systems #924-MP-010) (mouse) (UniProt P33434); test: Ki,app, enzyme inhibition assay (fluorogenic peptide substrate), medium-scale sFab
[3] = biological target: mouse MMP-2 (R&D Systems #924-MP-010) (mouse) (UniProt P33434); test: Ki,app, enzyme inhibition assay (fluorogenic peptide substrate), IgG

Binder | Ki [1] [nM] | Ki [2] [nM] | Ki [3] [nM]
M0301-D12 (Fab, V domains shown) VH: EVQLLESGGGLVQPGGSLRLSCAASGFTFSMYDMWWVRQAPGKGLEWVSVIYSSGGYTSYADSVKGRFTISRDNSKNTLYLQMNSLRAEDTAVYYCAKDRAYGDYVGWNGFDYWGQGTLVTVSS VL: DIQMTQSPATLSLSPGERATLSCRASQSISSFLAWYQQKPGQAPRLLIYDASYRATGIPARFSGSGSGTDFTLTISSLEPEDYAVYYCQQRGNWPITFGQGTRLEIK | 25 | 25 | –
M0273-C10 (Fab, V domains shown) VH: EVQLLESGGGLVQPGGSLRLSCAASGFTFSFYPMWWVRQAPGKGLEWVSYIYPSGGATFYADSVKGRFTISRDNSKNTLYLQMNSLRAEDTAVYYCAKDRAYGDYVGWNGFDYWGQGTLVTVSS VL: DIQMTQSPATLSLSPGERATLSCRASQSISSFLAWYQQKPGQAPRLLIYDASYRATGIPARFSGSGSGTDFTLTISSLEPEDYAVYYCQQRGNWPITFGQGTRLEIK | 18 | 18 | –
X0106-F05 (antibody, V domains shown) VH: EVQLLESGGGLVQPGGSLRLSCAASGFTFSLYDMWWVRQAPGKGLEWVSVIYSSGGYTGYADSVKGRFTISRDNSKNTLYLQMNSLRAEDTAVYYCAKDRAYGDYVGWNGFDYWGQGTLVTVSS VL: EIVLTQSPATLSLSPGERATLSCRASQSISSFLAWYQQKPGQAPRLLIYDASYRATGIPARFSGSGSGTDFTLTISSLEPEDFAVYYCQQRGNWPITFGQGTRLEIK | – | – | 3
539A-M0237-D02 hIgG1 (antibody, V domains shown) VH: EVQLLESGGGLVQPGGSLRLSCAASGFTFSQYPMWWVRQAPGKGLEWVSYIVPSGGRTYYADSVKGRFTISRDNSKNTLYLQMNSLRAEDTAVYYCAKDRAYGDYVGWNGFDYWGQGTLVTVSS VL: DIQMTQSPATLSLSPGERATLSCRASQSISSFLAWYQQKPGQAPRLLIYDASYRATGIPARFSGSGSGTDFTLTISSLEPEDYAVYYCQQRGNWPITFGQGTRLEIK | – | – | 76
M0272-H08 (Fab, V domains shown) VH: EVQLLESGGGLVQPGGSLRLSCAASGFTFSAYDMWWVRQAPGKGLEWVSVIYPSGGTTFYADSVKGRFTISRDNSKNTLYLQMNSLRAEDTAVYYCAKDRAYGDYVGWNGFDYWGQGTLVTVSS VL: DIQMTQSPATLSLSPGERATLSCRASQSISSFLAWYQQKPGQAPRLLIYDASYRATGIPARFSGSGSGTDFTLTISSLEPEDYAVYYCQQRGNWPITFGQGTRLEIK | 46 | 46 | –
M0275-E12 (Fab, V domains shown) VH: EVQLLESGGGLVQPGGSLRLSCAASGFTFSHYDMWWVRQAPGKGLEWVSVIYSSGGFTGYADSVKGRFTISRDNSKNTLYLQMNSLRAEDTAVYYCAKDRAYGDYVGWNGFDYWGQGTLVTVSS VL: DIQMTQSPATLSLSPGERATLSCRASQSISSFLAWYQQKPGQAPRLLIYDASYRATGIPARFSGSGSGTDFTLTISSLEPEDYAVYYCQQRGNWPITFGQGTRLEIK | 15 | 15 | –
M0256-D11 (Fab, V domains shown) VH: EVQLLESGGGLVQPGGSLRLSCAASGFTFSHYDMWWVRQAPGKGLEWVSVIYSSGGPTFYADSVKGRFTISRDNSKNTLYLQMNSLRAEDTAVYYCAKDRAYGDYVGWNGFDYWGQGTLVTVSS VL: DIQMTQSPATLSLSPGERATLSCRASQSISSFLAWYQQKPGQAPRLLIYDASYRATGIPARFSGSGSGTDFTLTISSLEPEDYAVYYCQQRGNWPITFGQGTRLEIK | 4.2 | 4.2 | –
M0274-G08 (Fab, V domains shown) VH: EVQLLESGGGLVQPGGSLRLSCAASGFTFSVYDMWWVRQAPGKGLEWVSVIYPSGGATYYADSVKGRFTISRDNSKNTLYLQMNSLRAEDTAVYYCAKDRAYGDYVGWNGFDYWGQGTLVTVSS VL: DIQMTQSPATLSLSPGERATLSCRASQSISSFLAWYQQKPGQAPRLLIYDASYRATGIPARFSGSGSGTDFTLTISSLEPEDYAVYYCQQRGNWPITFGQGTRLEIK | 2.7 | 2.7 | –
M0275-D03 (Fab, V domains shown) VH: EVQLLESGGGLVQPGGSLRLSCAASGFTFSQYDMWWVRQAPGKGLEWVSVIYPSGTTFYADSVKGRFTISRDNSKNTLYLQMNSLRAEDTAVYYCAKDRAYGDYVGWNGFDYWGQGTLVTVSS VL: DIQMTQSPATLSLSPGERATLSCRASQSISSFLAWYQQKPGQAPRLLIYDASYRATGIPARFSGSGSGTDFTLTISSLEPEDYAVYYCQQRGNWPITFGQGTRLEIK | 5.4 | 5.4 | –
M0307-F04 (Fab, V domains shown) VH: EVQLLESGGGLVQPGGSLRLSCAASGFTFSLYDMWWVRQAPGKGLEWVSVIYSSGGYTGYADSVKGRFTISRDNSKNTLYLQMNSLRAEDTAVYYCAKDRAYGDYVGWNGFDYWGQGTLVTVSS VL: DIQMTQSPATLSLSPGERATLSCRASQSISSFLAWYQQKPGQAPRLLIYDASYRATGIPARFSGSGSGTDFTLTISSLEPEDYAVYYCQQRGNWPITFGQGTRLEIK | 2.2 | 2.2 | –
M0301-A09 (Fab, V domains shown) VH: EVQLLESGGGLVQPGGSLRLSCAASGFTFSYYDMWWVRQAPGKGLEWVSVIYPSGGYTAYADSVKGRFTISRDNSKNTLYLQMNSLRAEDTAVYYCAKDRAYGDYVGWNGFDYWGQGTLVTVSS VL: DIQMTQSPATLSLSPGERATLSCRASQSISSFLAWYQQKPGQAPRLLIYDASYRATGIPARFSGSGSGTDFTLTISSLEPEDYAVYYCQQRGNWPITFGQGTRLEIK | 21 | 21 | –
X0106-E04 (antibody, V domains shown) VH: EVQLLESGGGLVQPGGSLRLSCAASGFTFSQYDMWWVRQAPGKGLEWVSVIYPSGTTFYADSVKGRFTISRDNSKNTLYLQMNSLRAEDTAVYYCAKDRAYGDYVGWNGFDYWGQGTLVTVSS VL: EIVLTQSPATLSLSPGERATLSCRASQSISSFLAWYQQKPGQAPRLLIYDASYRATGIPARFSGSGSGTDFTLTISSLEPEDFAVYYCQQRGNWPITFGQGTRLEIK | – | – | 3.9
M0273-B10 (Fab, V domains shown) VH: EVQLLESGGGLVQPGGSLRLSCAASGFTFSKYAMIWVRQAPGKGLEWVSWIPPSGGYTSYADSVKGRFTISRDNSKNTLYLQMNSLRAEDTAVYYCAKDRAYGDYVGWNGFDYWGQGTLVTVSS VL: DIQMTQSPATLSLSPGERATLSCRASQSISSFLAWYQQKPGQAPRLLIYDASYRATGIPARFSGSGSGTDFTLTISSLEPEDYAVYYCQQRGNWPITFGQGTRLEIK | 59 | 59 | –
M0273-A11 (Fab, V domains shown) VH: EVQLLESGGGLVQPGGSLRLSCAASGFTFSRYDMWWVRQAPGKGLEWVSVISPSGGATFYADSVKGRFTISRDNSKNTLYLQMNSLRAEDTAVYYCAKDRAYGDYVGWNGFDYWGQGTLVTVSS VL: DIQMTQSPATLSLSPGERATLSCRASQSISSFLAWYQQKPGQAPRLLIYDASYRATGIPARFSGSGSGTDFTLTISSLEPEDYAVYYCQQRGNWPITFGQGTRLEIK | 32 | 32 | –
M0276-F11 (Fab, V domains shown) VH: EVQLLESGGGLVQPGGSLRLSCAASGFTFSWYDMWWVRQAPGKGLEWVSVIYSSGGPTFYADSVKGRFTISRDNSKNTLYLQMNSLRAEDTAVYYCAKDRAYGDYVGWNGFDYWGQGTLVTVSS VL: DIQMTQSPATLSLSPGERATLSCRASQSISSFLAWYQQKPGQAPRLLIYDASYRATGIPARFSGSGSGTDFTLTISSLEPEDYAVYYCQQRGNWPITFGQGTRLEIK | 3.7 | 3.7 | –
M0299-A12 (Fab, V domains shown) VH: EVQLLESGGGLVQPGGSLRLSCAASGFTFSHYPMWWVRQAPGKGLEWVSYISSSGGGTFYADSVKGRFTISRDNSKNTLYLQMNSLRAEDTAVYYCAKDRAYGDYVGWNGFDYWGQGTLVTVSS VL: DIQMTQSPATLSLSPGERATLSCRASQSISSFLAWYQQKPGQAPRLLIYDASYRATGIPARFSGSGSGTDFTLTISSLEPEDYAVYYCQQRGNWPITFGQGTRLEIK | 30 | 30 | –
X0106-B02 (antibody, V domains shown) VH: EVQLLESGGGLVQPGGSLRLSCAASGFTFSWYDMWWVRQAPGKGLEWVSVIYSSGGPTFYADSVKGRFTISRDNSKNTLYLQMNSLRAEDTAVYYCAKDRAYGDYVGWNGFDYWGQGTLVTVSS VL: EIVLTQSPATLSLSPGERATLSCRASQSISSFLAWYQQKPGQAPRLLIYDASYRATGIPARFSGSGSGTDFTLTISSLEPEDFAVYYCQQRGNWPITFGQGTRLEIK | – | – | 4.2
X0106-C03 (antibody, V domains shown) VH: EVQLLESGGGLVQPGGSLRLSCAASGFTFSVYDMWWVRQAPGKGLEWVSVIYPSGGATYYADSVKGRFTISRDNSKNTLYLQMNSLRAEDTAVYYCAKDRAYGDYVGWNGFDYWGQGTLVTVSS VL: EIVLTQSPATLSLSPGERATLSCRASQSISSFLAWYQQKPGQAPRLLIYDASYRATGIPARFSGSGSGTDFTLTISSLEPEDFAVYYCQQRGNWPITFGQGTRLEIK | – | – | 3.2
M0273-G07 (Fab, V domains shown) VH: EVQLLESGGGLVQPGGSLRLSCAASGFTFSHYDMWWVRQAPGKGLEWVSVIYPSGGPTYYADSVKGRFTISRDNSKNTLYLQMNSLRAEDTAVYYCAKDRAYGDYVGWNGFDYWGQGTLVTVSS VL: DIQMTQSPATLSLSPGERATLSCRASQSISSFLAWYQQKPGQAPRLLIYDASYRATGIPARFSGSGSGTDFTLTISSLEPEDYAVYYCQQRGNWPITFGQGTRLEIK | 22 | 22 | –
